# Measured values from patent US7588931B2, “High arachidonic acid producing strains of Yarrowia lipolytica” (E. I. du Pont de Nemours and Company, priority 2004, dated 2009).
# Tested on: Yarrowia lipolytica strain ATCC #76982(Leu-)
# Assay: EDA substrate feeding of Y. lipolytica expressing codon-optimized Δ8 desaturase genes
# Assay type: cell-based
# Conditions: MM containing 10 μg of EDA substrate, about 24 hr at 30° C.
# Experimental: Yarrowia lipolytica strain ATCC #76982(Leu-) was transformed with pDMW240 (FIG. 8D) and pDMW255, respectively, as described in the General Methods. Yeast containing the recombinant constructs were grown in MM supplemented with EDA [20:2(11,14)]. Specifically, single colonies of transformant Y. lipolytica containing either pDMW240 (containing D8S-1) or pDMW255 (containing D8S-2) were grown in 3 mL MM at 30° C. to an OD600˜1.0. For substrate feeding, 100 μl of cells were then subcultured in 3 mL MM containing 10 μg of EDA substrate for about 24 hr at 30° C. The cells were collected by centrifugation, lipids were extracted, and fatty acid methyl esters were prepared by trans-esterification, and subsequently analyzed with a Hewlett-Packard 6890 GC.
# A three amino acid difference between the protein sequence of the Δ8 desaturase deposited in GenBank (Accession No. AAD45877 [SEQ ID NO:43]) and in WO 00/34439 or Wallis et al. (Archives of Biochem. Biophys, 365:307-316 (1999)) (SEQ ID NO:252 herein) was found. Specifically, three amino acids appeared to be missing in GenBank Accession No. […]. […]
molecule,measurement,value
"D8S-3: synthetic Δ8 desaturase gene in pDMW261, SEQ ID NO:255 (protein, D8S-3: synthetic delta 8-desaturase gene codon-optimized for Yarrowia lipolytica in pDMW261) MKSKRQALSPLQLMEQTYDVSAWVNFHPGGAEIIENYQGRDATDAFMVMHFQEAFDKLKRMPKINPSFELPPQAAVNEAQEDFRKLREELIATGMFDASPLWYSYKISTTLGLGVLGYFLMVQYQMYFIGAVLLGMHYQQMGWLSHDICHHQTFKNRNWNNLVGLVFGNGLQGFSVTCWKDRHNAHHSATNVQGHDPDIDNLPPLAWSEDDVTRASPISRKLIQFQQYYFLVICILLRFIWCFQCVLTVRSLKDRDNQFYRSQYKKEAIGLALHWTLKALFHLFFMPSILTSLLVFFVSELVGGFGIAIVVFMNHYPLEKIGDPVWDGHGFSVGQIHETMNIRRGIITDWFFGGLNYQIEHHLWPTLPRHNLTAVSYQVEQLCQKHNLPYRNPLPHEGLVILLRYLAVFARMAEKQPAGKAL",desaturation of EDA to DGLA,No desaturation of EDA to DGLA was observed
